Measured values from patent US20070258981A1 (published 2007).
Numbering of substitutions follows the chain as printed. In names and notes the source's numbering stands. Blank lines part the entries; values can stand above or below the binder they belong to.

Columns and labels:
[1] = target: T1, human CD22 (hCD22) expressed on the cell surface (human, UniProt P20273 20-847); experiment: BHK-CD22 cell ELISA
T1 construct: whole, on cells; Used as capture agent in the BHK-CD22 cell ELISA and as target in flow cytometry; also called BHK-CD22; hCD22 expressing CHO cells

[2] = target: hCD22 immobilised on a CM5 sensor chip (BIAcore ligand) (human, UniProt P20273 20-687, limits assumed); experiment: BIAcore 3000 SPR; hCD22 amine-coupled to CM5 chip, IgG injected; global 1:1 fit
Protocol: Binding affinity of HB22.7 and RHOv2ACD/RKA were determined on a BIAcore 3000 instrument (BIAcore, Inc., Uppsala, Sweden). The ligand, hCD22, was prepared at 50 nM in 10 mM NaOAc, pH4 buffer. It was injected onto an EDC/NHS-activated CM5 sensor chip (BIAcore, Inc. Uppsala, Sweden) using a standard immobilization protocol. Following this, any unreacted active ester moieties were quenched using 1M Et-NH2 (ethanolamine; coupling reagents purchased from BIAcore, Inc.). A total of 535 and 689 RUs hCD22 remained bound to two sensor chip surfaces used in these experiments. Separately, a blank surface was prepared on each sensor chip using the identical protocol (minus protein). The blank surfaces were used as a reference cell in the experiments, and served to correct for both non-specific binding and some housekeeping artifacts.
For the kinetic experiments, HB22.7 and RHOv2ACD/RKA were prepared as two dilution series, starting at 22 nM and 100 nM, then diluted three- and two-fold, respectively, down to final concentrations of 0.03 nM and 0.39 nM in HBS-EP buffer (BIAcore, Inc., consisting of the following: 10 mM HEPES buffer, pH7.4, 150 mM NaCl, 3 mM EDTA, and 0.005% P20). Each concentration of IgG was then injected over both the CD22 and reference cell surfaces, which are connected in series. Between injections, surfaces were regenerated with a 1-minute injection of 3M MgCl2.

[3] = target: T1, human CD22 (hCD22) expressed on the …; experiment: binding to BHK-hCD22 cells
Protocol: The ability of chHB227 and its humanized variants to bind hCD22 was assessed in a cell based CD22 binding assay utilizing BHK cells expressing cell-surface human CD22 as a capture agent. Untransfected BHK cells not expressing hCD22 served as a control for non-specific binding. The BHK and BHK-CD22 lines were grown in DMEM supplemented with 10% Fetal Clone I and antibiotics. G418/Geneticin (0.75 mg/ml) was also added to the growth medium for BHK-CD22 only. The standard NCI protocol was used for the binding assay.

B1: humanized antibody HB227RHF + HB227RKC (antibody, V domains shown)
VH: QVQLQESGPALVKPTQTLTLTCTVSGFSLSDYGVNWIRQPPGKALEWLGIIWGDGRTDYNSALKSRLSISKDNSKNQVVLRMTNVDPVDTATYFCARAPGNRAMEYWGQGTVVTVSS
VL: DIVMTQSPSSLSASVGDRVTITCKASQSVTNDVAWYQQKPGKAPKLLIYYASNRYTGVPDRFSGSGYGTDFTLTISSLQPEDFATYFCQQDYRSPWTFGGGTKVEIKR
notes: Human IgG1/kappa, COS-7 supernatant; also called RHF+RKC; humanized (RHF+RKC) antibody
- binding result [1]: binds

B3: humanized anti-hCD22 antibody RHOv2ACD/RKA (antibody, V domains shown)
VH: QVQLEESGGGVVRPGRSLRLSCAASGFTFSDYGVNWIRQAPGKGLEWVTIIWGDGRTDYNSALKSRFTVSRNNSNNTLSLQMNSLTTEDTAVYYCVRAPGNRAMEYWGQGVLVTVSS
VL: DIVMTQSPSSLSASVGDRVTITCKASQSVTNDVAWYQQKPGKAPKLLIYYASNRYTGVPSRFSGSGSGTDFTLTISSLQPEDFATYYCQQDYRSPWTFGGGTKVEIK
modifications: Labelled with Alexa Fluor 488 or 647 in some flow cytometry assays; unlabelled IgG in the BIAcore runs.
notes: VH keeps only the D30S back mutation; Labelled with Alexa Fluor 488 or 647 in some flow cytometry assays; also called HB227RHOv2ACD + HB227RKA; RHOvACD/RKA
- Kd [2]: 22 nM
- koff [2]: 0.00069 s⁻¹
- kon [2]: 32000 M⁻¹ s⁻¹

Other lines, results leading:

- binding result [1]: binds
B2: antibody of chimeric HB22.7 heavy chain (chH) with HB227RKA light chain variable region (antibody, V domains shown)
VH: QVQLKESGPGLVAPSQSLSITCTVSGFSLSDYGVNWVRQIPGKGLEWLGIIWGDGRTDYNSALKSRLNISKDNSKSQVFLKMNSLKADDTARYYCARAPGNRAMEYWGQGTSVTVSS
VL: B3 VL
notes: Human IgG1/kappa, COS-7 supernatant; VL entry may include the DPK018 leader; also called chH+RKA

- binding result [3]: binds
B4: humanized antibody HB227RHOv2ABCD + HB227RKA (antibody, V domains shown)
VH: B3 VH with S30D
VL: B3 VL
notes: VH without back mutations; Human IgG1/kappa, COS-7 supernatant; also called RHOv2ABCD+RKA
